Results published in the supplement of paper PMC7877785.
± gives the uncertainty stated by the source.

Test: self-splicing fitness, log relative to wild type (ln ratio); higher = more splicing; Tetrahymena group I intron in knt gene, E. coli kanamycin selection, DiMSum; sequences stand for … in CUCUCU…GGAGGGAAAAGUUAUCAGGCAUGCACCUGGUAGCUAGUCUUUAAACCAAUAGAUUGCAUCGGUUUAAAAGGCAAGACCGUCAAAUUGCGGGAAAGGGGUCAACAGCCGUUCAGUACCAAGUCUCAGGGGAAACUUUGAGAUGGCCUUGCAAAGGGUAUGGUAAUAAGCUGACGGACAUGGUCCUAACCACGCAGCCAAGUCCUAAGUCAACAGAUCUUCUGUUGAUAUGGAUGCAGUUCACAGACUAAAUGUCGGUCGGGGAAGAUGUAUUCUUCUCAUAAGAUAUAGUCGGACCUCUCCUUAAUGGGAGCUAGCGGAUGAAGUGAUGCAACACUGGAGCCGCUGGGAACUAAUUUGUAUGCGAAAGUAUAUUGAUUAGUUUUGGAGUACUCGUGGUCG
Procedure, shortened: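 Fitness was computed with DiMSum as the error-weighted combination of replicate fold changes, kanamycin versus none, each normalised to wild type. The library randomised all eight intron nucleotides of the P1ex region, with the intron placed in the knt kanamycin-resistance gene on pET-22b(+) in E. coli BL21(DE3). Six replicate transformations were grown overnight at 37°C or 30°C on LB agar with or without 25 μg/mL kanamycin, plus 100 μg/mL carbenicillin, 50 μM IPTG and 0.2% rhamnose. Pooled colonies were amplicon-sequenced on an Illumina HiSeq 2500.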

Sequence	self-splicing fitness (ln) (30 °C)	self-splicing fitness (ln) (37 °C)
CAUAAGCAAUAUUACGCAUA	-2.48 ± 0.18	-1.71 ± 0.24
CAUAAGCAAUAUUACGCGAA	-2.82 ± 0.25	-2.59 ± 0.34
CAUAAGCAAUAUUACGCGCA	-1.4 ± 0.11	-0.55 ± 0.11
CAUAAGCAAUAUUACGCUGA	-2.49 ± 0.21	-2.62 ± 0.28
CAUAAGCAAUAUUACGCUUA	-3.59 ± 0.29	-2.65 ± 0.26
CAUAAGCAAUAUUACGGCAG	0.0468 ± 0.075	-0.545 ± 0.089
CAUAAGCAAUAUUACGGCCU	-3.3 ± 0.37	-2.79 ± 0.4
CAUAAGCAAUAUUACGGGAC	-1.54 ± 0.18	-2.23 ± 0.27
CAUAAGCAAUAUUACGGGCG	-0.054 ± 0.08	0.166 ± 0.092
CAUAAGCAAUAUUACGGGCU	–	-2.73 ± 0.25
CAUAAGCAAUAUUACGGGGU	-4.17 ± 0.19	-2.46 ± 0.15
CAUAAGCAAUAUUACGGUUC	-3.7 ± 0.17	-3.08 ± 0.19
CAUAAGCAAUAUUACGUCCU	-3.78 ± 0.27	-3.15 ± 0.19
CAUAAGCAAUAUUACGUGUG	-3.56 ± 0.15	-2.94 ± 0.17
CAUAAGCAAUAUUACGUUAG	-1.13 ± 0.083	-0.61 ± 0.11
CAUAAGCAAUAUUACGUUAU	-4.62 ± 0.3	-2.58 ± 0.16
CAUAAGCAAUAUUACGUUCC	-3.94 ± 0.32	–
CAUCAGCAAUAUUACGAAUA	-1.48 ± 0.23	-0.645 ± 0.17
CAUCAGCAAUAUUACGACUA	-1.26 ± 0.13	-0.0399 ± 0.13

Sequence	self-splicing fitness (ln) (30 °C)	self-splicing fitness (ln) (37 °C)
CAUCAGCAAUAUUACGAGCC	-3.22 ± 0.31	-2.33 ± 0.41
CAUCAGCAAUAUUACGAGGA	-3.13 ± 0.23	-2.6 ± 0.19
CAUCAGCAAUAUUACGAUGC	-4.35 ± 0.36	-2.76 ± 0.33
CAUCAGCAAUAUUACGCACC	-3.56 ± 0.14	-1.61 ± 0.12
CAUCAGCAAUAUUACGCAGC	-3.35 ± 0.14	-1.29 ± 0.12
CAUCAGCAAUAUUACGCCCU	-2.55 ± 0.36	-1.54 ± 0.43
CAUCAGCAAUAUUACGCCGG	-0.415 ± 0.086	-0.327 ± 0.11
CAUCAGCAAUAUUACGCGGU	-3.35 ± 0.18	-2.39 ± 0.22
CAUCAGCAAUAUUACGCUCG	-0.495 ± 0.064	-0.134 ± 0.079
CAUCAGCAAUAUUACGCUGC	–	-2.61 ± 0.3
CAUCAGCAAUAUUACGCUUU	-2.23 ± 0.097	-1.34 ± 0.1
CAUCAGCAAUAUUACGGCCU	-3.29 ± 0.16	-2.15 ± 0.16
CAUCAGCAAUAUUACGGGGC	-4 ± 0.16	-2.01 ± 0.15
CAUCAGCAAUAUUACGUAUG	-2.16 ± 0.14	-1.43 ± 0.15
CAUCAGCAAUAUUACGUCCA	-1.71 ± 0.12	-2.92 ± 0.22
CAUCAGCAAUAUUACGUCGC	-3.05 ± 0.18	-2.11 ± 0.23
CAUCAGCAAUAUUACGUCUG	-0.675 ± 0.047	0.264 ± 0.059
CAUCAGCAAUAUUACGUGCA	-3.14 ± 0.21	-1.97 ± 0.2
CAUCAGCAAUAUUACGUGCG	-0.149 ± 0.056	0.355 ± 0.075
